Results on 9 molecules are retold here after patent publication US20180155451A1 (published 2018).

For experiment [1], the target named is T1, FcγRIIa H (FcγRIIa, allotype with His at position 131), extracellular domain with C-terminal His tag (human, UniProt P12318 34-217).
T1 construct: extracellular domain; Soluble receptor expressed in FreeStyle293 cells and used as the analyte in Biacore; also called FcgRIIa H; FcγRIIa type H; not shown: His tag attached to the C terminus
T1 sequence (looked up): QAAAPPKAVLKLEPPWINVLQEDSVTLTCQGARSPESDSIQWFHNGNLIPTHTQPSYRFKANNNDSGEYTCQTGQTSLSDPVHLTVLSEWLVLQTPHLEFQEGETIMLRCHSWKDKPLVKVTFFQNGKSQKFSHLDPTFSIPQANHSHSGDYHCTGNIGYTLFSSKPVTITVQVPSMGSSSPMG
As to the kind of experiment: SPR (Biacore T100), antibody captured on antigen-peptide chip, FcγRIIa H as analyte; response per captured antibody relative to GpH7-B3/GpL16-k0. On the procedure:
(§1) Analysis of interaction between objective antibody and the FcγR was carried out using Biacore T100 (GE Healthcare). HBS-EP+ (GE Healthcare) was used as the running buffer, and the measurement temperature was set to 25° C. Chips produced by immobilizing the antigen peptide by the amine coupling method to a Series S Sencor Chip CM5 (GE Healthcare), or alternatively, chips produced by allowing preliminarily biotinylated antigen peptides to interact with and immobilize onto a Series S Sensor Chip SA (certified) (GE Healthcare) were used. Antibodies of interest were captured onto an antigen peptide-immobilized chip, and allowed to interact to each FcγR diluted with running buffer. To regenerate and repeatedly use the chip, the antibodies captured on the chip were washed off by reacting 10 mM glycine-HCl, pH 1.5.
For orientation: In SPR one partner is held on a chip, and binding of the other changes the refractive index at the surface.

Experiment [2] has as its target T1, FcγRIIa H (FcγRIIa, allotype with His …). As to the kind of experiment: SPR (Biacore T100), antibody captured on antigen-peptide chip, FcγRIIa H as analyte; response per captured antibody relative to GpH7-A5/GpH7-B3/GpL16-k0. On the procedure: as §1

B1: GpH7-B3 variant T335_05P/GpL16-k0 (homodimerized antibody, Ho Ab) (antibody, human IgG1, kappa)
heavy: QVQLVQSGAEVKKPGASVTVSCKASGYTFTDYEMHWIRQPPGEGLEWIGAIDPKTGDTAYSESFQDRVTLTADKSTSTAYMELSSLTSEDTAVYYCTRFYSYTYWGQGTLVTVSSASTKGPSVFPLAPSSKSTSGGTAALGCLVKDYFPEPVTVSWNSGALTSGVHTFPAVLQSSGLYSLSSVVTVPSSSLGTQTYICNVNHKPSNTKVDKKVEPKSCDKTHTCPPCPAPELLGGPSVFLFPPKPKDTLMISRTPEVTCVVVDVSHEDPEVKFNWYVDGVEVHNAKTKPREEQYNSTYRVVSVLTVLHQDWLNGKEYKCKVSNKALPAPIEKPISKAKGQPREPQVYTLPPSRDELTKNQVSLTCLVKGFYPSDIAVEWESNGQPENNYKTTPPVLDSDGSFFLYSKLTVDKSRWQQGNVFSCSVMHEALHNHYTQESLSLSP
light: DIVMTQSPLSLPVTPGEPASISCQASESLVHSNRNTYLHWYLQKPGQSPQLLIYKVSNRFSGVPDRFSGSGSGTDFTLKISRVEAEDVGVYYCSQNTHVPPTFGQGTKVEIERTVAAPSVFIFPPSDEQLKSGTASVVCLLNNFYPREAKVQWKVDNALQSGNSQESVTEQDSKDSTYSLSSTLTLSKADYEKHKVYACEVTHQGLSSPVTKSFNRGEC
notes: Anti-glypican-3 IgG1 (GpH7-B3 background); substitution in both H chains; Position is EU numbering; also called Ho Ab T335P
With B1, in experiment [1], the Ho/Con_2aH is 115 relative binding activity (control homodimerized antibody GpH7-B3/GpL16-k0 = 100).

B2: GpH7-B3 variant Y300_06M/GpL16-k0 (homodimerized antibody, Ho Ab) (antibody, human IgG1, kappa)
heavy: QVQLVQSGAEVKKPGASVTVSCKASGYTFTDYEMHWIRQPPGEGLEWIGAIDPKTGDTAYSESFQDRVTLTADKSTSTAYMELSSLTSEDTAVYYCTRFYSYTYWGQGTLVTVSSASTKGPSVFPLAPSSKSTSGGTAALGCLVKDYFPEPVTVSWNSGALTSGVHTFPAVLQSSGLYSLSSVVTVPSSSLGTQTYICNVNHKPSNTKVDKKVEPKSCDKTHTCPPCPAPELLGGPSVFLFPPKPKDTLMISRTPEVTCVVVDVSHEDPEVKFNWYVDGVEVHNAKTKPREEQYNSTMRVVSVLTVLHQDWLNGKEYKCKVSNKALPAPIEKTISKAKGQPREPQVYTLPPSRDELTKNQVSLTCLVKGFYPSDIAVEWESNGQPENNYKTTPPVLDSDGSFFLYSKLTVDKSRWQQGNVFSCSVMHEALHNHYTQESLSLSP
light: B1 light
notes: Anti-glypican-3 IgG1 (GpH7-B3 background); substitution in both H chains; Position is EU numbering; also called Ho Ab Y300M
Regarding B2, in experiment [1], the Ho/Con_2aH was 106 relative binding activity (control homodimerized antibody GpH7-B3/GpL16-k0 = 100).

B3: GpH7-A5/GpH7-B3 variant T335_06M/GpL16-k0 (heterodimerized antibody, He Ab) (antibody, human IgG1, kappa)
heavy 1: not shown
heavy 2: not shown
light: B1 light
notes: Anti-glypican-3 IgG1; substitution only in the GpH7-B3 chain; Position is EU numbering; also called He Ab T335M
As to B3, the He/Con_2aH in experiment [2] is 103 relative binding activity (control heterodimerized antibody GpH7-A5/GpH7-B3/GpL16-k0 = 100).

B4: GpH7-B3 variant T335_09D/GpL16-k0 (homodimerized antibody, Ho Ab) (antibody, human IgG1, kappa)
heavy: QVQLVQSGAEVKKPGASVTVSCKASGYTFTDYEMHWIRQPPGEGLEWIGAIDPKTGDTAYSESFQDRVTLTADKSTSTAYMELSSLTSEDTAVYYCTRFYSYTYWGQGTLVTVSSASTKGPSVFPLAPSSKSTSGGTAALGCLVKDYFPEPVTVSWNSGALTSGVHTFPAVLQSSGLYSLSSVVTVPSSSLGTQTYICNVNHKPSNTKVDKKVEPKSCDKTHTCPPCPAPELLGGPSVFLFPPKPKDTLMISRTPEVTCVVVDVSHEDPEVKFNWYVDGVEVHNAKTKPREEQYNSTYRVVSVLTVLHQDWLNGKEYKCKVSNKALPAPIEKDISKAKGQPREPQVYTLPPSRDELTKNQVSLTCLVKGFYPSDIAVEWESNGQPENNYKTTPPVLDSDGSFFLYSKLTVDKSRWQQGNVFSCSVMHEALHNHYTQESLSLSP
light: B1 light
notes: Anti-glypican-3 IgG1 (GpH7-B3 background); substitution in both H chains; Position is EU numbering; also called Ho Ab T335D
With B4, the Ho/Con_2aH in experiment [1] was 110 relative binding activity (control homodimerized antibody GpH7-B3/GpL16-k0 = 100).

B5: GpH7-B3 variant T335_06M/GpL16-k0 (homodimerized antibody, Ho Ab) (antibody, human IgG1, kappa)
heavy: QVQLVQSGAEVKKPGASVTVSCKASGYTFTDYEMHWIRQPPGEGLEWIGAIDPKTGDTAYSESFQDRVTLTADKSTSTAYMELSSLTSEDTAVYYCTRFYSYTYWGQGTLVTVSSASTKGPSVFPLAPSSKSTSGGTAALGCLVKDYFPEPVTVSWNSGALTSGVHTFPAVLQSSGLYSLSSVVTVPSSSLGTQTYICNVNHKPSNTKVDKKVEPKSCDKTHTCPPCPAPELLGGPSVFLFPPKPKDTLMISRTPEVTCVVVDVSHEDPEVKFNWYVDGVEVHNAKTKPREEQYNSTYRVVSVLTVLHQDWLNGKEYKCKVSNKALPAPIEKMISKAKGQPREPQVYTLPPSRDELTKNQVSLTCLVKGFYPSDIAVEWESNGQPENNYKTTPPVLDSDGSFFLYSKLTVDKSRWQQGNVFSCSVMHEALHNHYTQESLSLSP
light: B1 light
notes: Anti-glypican-3 IgG1 (GpH7-B3 background); substitution in both H chains; Position is EU numbering; also called Ho Ab T335M
As to B5, the Ho/Con_2aH in experiment [1] was 106 relative binding activity (control homodimerized antibody GpH7-B3/GpL16-k0 = 100).

B6: GpH7-B3 variant T335_08L/GpL16-k0 (homodimerized antibody, Ho Ab) (antibody, human IgG1, kappa)
heavy: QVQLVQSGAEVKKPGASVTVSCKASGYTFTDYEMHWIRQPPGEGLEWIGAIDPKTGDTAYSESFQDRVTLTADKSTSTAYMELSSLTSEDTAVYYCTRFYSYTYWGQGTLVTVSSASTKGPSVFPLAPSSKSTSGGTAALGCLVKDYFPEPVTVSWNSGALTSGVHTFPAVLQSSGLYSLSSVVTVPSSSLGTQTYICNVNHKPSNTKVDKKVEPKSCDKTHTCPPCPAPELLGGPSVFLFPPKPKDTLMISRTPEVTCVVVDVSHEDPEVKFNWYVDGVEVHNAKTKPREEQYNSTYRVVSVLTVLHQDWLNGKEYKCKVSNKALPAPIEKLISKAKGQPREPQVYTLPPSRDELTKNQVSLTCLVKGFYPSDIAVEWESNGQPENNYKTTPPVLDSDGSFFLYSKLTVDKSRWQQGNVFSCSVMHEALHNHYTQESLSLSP
light: B1 light
notes: Anti-glypican-3 IgG1 (GpH7-B3 background); substitution in both H chains; Position is EU numbering; also called Ho Ab T335L
B6: the Ho/Con_2aH in experiment [1] was 106 relative binding activity (control homodimerized antibody GpH7-B3/GpL16-k0 = 100).

B7: GpH7-B3 variant Y300_08L/GpL16-k0 (homodimerized antibody, Ho Ab) (antibody, human IgG1, kappa)
heavy: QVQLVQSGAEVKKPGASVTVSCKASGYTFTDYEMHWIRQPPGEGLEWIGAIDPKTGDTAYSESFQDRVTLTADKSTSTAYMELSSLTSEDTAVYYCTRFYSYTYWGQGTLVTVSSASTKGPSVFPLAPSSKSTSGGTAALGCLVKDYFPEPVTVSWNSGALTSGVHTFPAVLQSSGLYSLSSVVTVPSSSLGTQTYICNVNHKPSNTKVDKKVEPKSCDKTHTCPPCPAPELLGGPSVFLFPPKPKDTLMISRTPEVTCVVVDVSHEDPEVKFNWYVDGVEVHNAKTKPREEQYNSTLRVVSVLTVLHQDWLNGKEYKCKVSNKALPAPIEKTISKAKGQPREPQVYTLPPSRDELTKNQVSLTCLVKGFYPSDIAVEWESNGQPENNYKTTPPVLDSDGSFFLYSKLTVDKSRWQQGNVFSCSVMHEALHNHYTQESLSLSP
light: B1 light
notes: Anti-glypican-3 IgG1 (GpH7-B3 background); substitution in both H chains; Position is EU numbering; also called Ho Ab Y300L
For the molecule B7, in experiment [1], the Ho/Con_2aH is 115 relative binding activity (control homodimerized antibody GpH7-B3/GpL16-k0 = 100).

B8: GpH7-A5/GpH7-B3 variant T335_05P/GpL16-k0 (heterodimerized antibody, He Ab) (antibody, human IgG1, kappa)
heavy 1: not shown
heavy 2: not shown
light: B1 light
notes: Anti-glypican-3 IgG1; substitution only in the GpH7-B3 chain; Position is EU numbering; also called He Ab T335P
Regarding B8, the He/Con_2aH in experiment [2] was 108 relative binding activity (control heterodimerized antibody GpH7-A5/GpH7-B3/GpL16-k0 = 100).

B9: GpH7-B3 variant Y300_07I/GpL16-k0 (homodimerized antibody, Ho Ab) (antibody, human IgG1, kappa)
heavy: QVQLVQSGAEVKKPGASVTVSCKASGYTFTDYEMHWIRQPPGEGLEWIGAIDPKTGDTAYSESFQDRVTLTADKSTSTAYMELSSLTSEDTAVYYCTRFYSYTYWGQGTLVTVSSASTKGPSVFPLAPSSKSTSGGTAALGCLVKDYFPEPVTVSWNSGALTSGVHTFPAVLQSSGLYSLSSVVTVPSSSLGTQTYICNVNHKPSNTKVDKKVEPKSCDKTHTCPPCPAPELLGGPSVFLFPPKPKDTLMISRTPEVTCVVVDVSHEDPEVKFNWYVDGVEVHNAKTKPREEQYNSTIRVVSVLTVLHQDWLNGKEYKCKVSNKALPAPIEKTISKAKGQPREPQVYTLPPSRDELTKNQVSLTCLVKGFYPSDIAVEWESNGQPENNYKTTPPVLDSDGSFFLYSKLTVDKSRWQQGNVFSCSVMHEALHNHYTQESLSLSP
light: B1 light
notes: Anti-glypican-3 IgG1 (GpH7-B3 background); substitution in both H chains; Position is EU numbering; also called Ho Ab Y300I
Take B9: the Ho/Con_2aH in experiment [1] was 122 relative binding activity (control homodimerized antibody GpH7-B3/GpL16-k0 = 100).
